The series can be described thus: yeast display, Sf9 membrane polyspecificity reagent, FACS + sequencing; frameworks hold sequencing errors. Summed up: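 A nanobody's polyreactivity label depends on the gate it was sorted from. Yeast display cells were stained with 10% biotinylated, detergent-solubilized Sf9 membrane reagent for 1 hour at 4 °C, enriched on streptavidin microbeads and sorted by FACS. The low and high (top ~1%) gates were set on anti-HA fluorescence for expression and streptavidin fluorescence for reagent binding.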
As to “HVQLVESGGGLVQAGGSLRLSCAASGFIFDVNAMGWYRQAPGKERELVAVIRGSGGSTYYADSVKGRFTISRDNAKNTVYLQMNSLKPADTAVYYCAAAVNHVAYHYNYWGQGTQVTVSS”, the “polyreactivity (PSR sort gate)” value was “high polyreactivity”.
Regarding “HVQLVESGGGLVQAGGSLRLSCAASGFIFRGHVMGWYRQAPGKERELVAAISGGSTTYADSVKGRFTISRDNAKTTVYLQMNSLKPEDTAVYYCAKRDQDRTFPNGYWGQGTQVTVSS”, the “polyreactivity (PSR sort gate)” value is listed as “high polyreactivity”.
As for “HVQLVESGGGLVQAGGSLRLSCAASGFIFVFYDMGWYRPAPGKERELVAGITRNDGSTYYADSVKGRFKISRDNAKNTVYLQMNSLKPEDTAVYYCAADRVRRNDKLAYDYWGQGTQVTVSS”, the entry is “low polyreactivity”; as for “HVQLVESGGGLVQAGGSLRLSCAASGFIGIYALGWYRQAPGKERELVAAITTSGGRTYYADSVKGRFTISRDNAKNTVYLQMNSLKPEDTAVYYCAAPWRLFSLYDYWGQGTQVTVSS”, “low polyreactivity”; as for “HVQLVESGGGLVQAGGSLRLSCAASGFTFPIYTMGWYRQAPGKESELVAAISASGGRTYYADSVKGRFTISRDNAKNTVYFQMNSLNPEDTSVYFCAADGYRAPGNAYYYWGQGTQVTVSS”, “high polyreactivity”.
Consider “HVQLVESGGGLVQAGGSLRLSCAASGFTFRRNAMGWYRQSPGKERELVASITQRGGSTYYADSVKGRFTISRDNAKNTVYLQMNSLKPADTAVYDCNARSWDSFHPHDYWGQGTLVTVSS”, for which the “polyreactivity (PSR sort gate)” value is given as “high polyreactivity”.
Under “HVQLVESGGGLVQAGGSLRLSCAASGFTIQRYAMGWYRQAPGKERELVAAITSGGSTYYADSVKGRFTISRDNAMNTVYLQMNSLKPEDTAVYYCATRAVWSSWGRRYDSWGQGTQVTVSS” stands “high polyreactivity”; under “HVQLVESGGGLVQAGGSLRLSCAASGIIFIGNAMGWYSQAPGKERELVAAISRRGGRTYYADSVKGRFTISRDNAKNTVYLQMNSLKPEDTAVYYCNAEISVNDDDYWGQGTQVTVSS”, “high polyreactivity”.
Under “HVQLVESGGGLVQAGGSLRLSCAASGIIFWTYTMGWYRQAPGKERELVGAISSGGSTKYADSVKGRFTISRDNAKNTVYLQMNSLKPADTAVYYCNAEFAPWGSAYGHDQYDYWGQGTQVTVSS” stands “low polyreactivity”.
As for “HVQLVESGGGLVQAGGSLRLSCAASGITFPIYAMGWYRQAPGKEREFVAAINQRGGSTYYADSVKGRFTISRDNAKNTVYLQMNSLKPEDTAVDYCAAENGFNSLSRSGLHYWGQGTQVTVSS”, the entry is “low polyreactivity”.
As for “HVQLVESGGGLVQAGGSLRLSCAASGLIFSAYAMGWYRQAPGKEREFVAAISRSGGITFYADSVKGRFTISRDNAKNTVYLQMNSLKPEDTAVYYCAARLYKYRRGGGYFWGQGTKVTVSS”, the “polyreactivity (PSR sort gate)” value is listed as “high polyreactivity”.
With “HVQLVESGGGLVQAGGSLRLSCAASGLTFEDNDMGWYRQAPGKERELVAAISSAGSTSYADSVKGRFTISRVNAKNTVYLQMNSLKPEDTAVYYCAKDNSPSYTPAQLDGGDDYWGHGTQVTVSS”, the “polyreactivity (PSR sort gate)” value is “low polyreactivity”.
As for “HVQLVESGGGLVQAGGSLRLSCAASGNTFKYYAMGWYRQAPGKERELVAAISYSGGSTYYADSVKGRFTISRDNAKNTVYLQMNSLKPEDTAVYYCAADLDSERYYWGQGTQVTVSS”, the “polyreactivity (PSR sort gate)” value was “low polyreactivity”.
As to “HVQLVESGGGLVQAGGSLRLSCAASGRIFGPNAMGWYRQAPGKERELVAAISSGTGSRTYYADSVKGRFTISRDNAKKTVSLQMISLKPEDTAVYYCAVYSQQVYRWKYRFDYWGQGTQVTVSS”, the “polyreactivity (PSR sort gate)” value was “low polyreactivity”.
Consider “HVQLVESGGGLVQAGGSLRLSCAASGRIFLRYAMGWYRQAPGKERELVAVISSGGSTYYADSVKGRFTISRDNAKNTVYLQMHSLKPEDSAVYYCAARRHDSRYQYDYWGQGTQVSVSS”, for which the “polyreactivity (PSR sort gate)” value is given as “high polyreactivity”.
Under “HVQLVESGGGLVQAGGSLRLSCAASGRIFSVYAMGWYRQAPGKEWEFVAAITTNGGSTYYADSVKGRFTISRDNAKNTVYLQMNSLKPEDTAVYYCAAYRSRVNGYRVDYWGQGTQVTVSS” stands “high polyreactivity”.
As for “HVQLVESGGGLVQAGGSLRLSCAASGRILVHNAMGWYRQAPGKERELVAVITARGASTYYADSVKGRFTISRDNAKNSVYLQMNSLKPEDTAVYYCATDKRPKYYNQYDYWGQGTQVTVSS”, the “polyreactivity (PSR sort gate)” value was “low polyreactivity”.
For “HVQLVESGGGLVQAGGSLRLSCAASGRSFYKYAMGWYRQAPGKERELVAAISLRGARTYYADSVKGRFTISRDNATNTVYLQMHSLKPEETAVYYCAADNYYVRYAYNKSYSWGQGTQVTGSS”, the “polyreactivity (PSR sort gate)” value is on record as “low polyreactivity”.
As to “HVQLVESGGGLVQAGGSLRLSCAASGRTFSFYVMGWYRQAPGKERELVAAISSSGGRTYYADSVKGRFTISRDNAKNTVYVQMNSLKPEDTAVYYCAVDQPFVSWRLFTQPDSYPRDYWGQGTQVTVSS”, the “polyreactivity (PSR sort gate)” value is listed as “low polyreactivity”.
For the sequence “HVQLVESGGGLVQAGGSLRLSCAASGRTLRRNAMGWYRQAPGKERELVAAINYSGANTYYADSVKGRFTISRDNAKNTVYLQMNSLKPEDTAVYYCAAASTSYRGISGGDYWGQGTQVTVSS”, the “polyreactivity (PSR sort gate)” value was “high polyreactivity”.
As for “HVQLVESGGGLVQAGGSLRLSCAASGSIFGLYAMGWSRQAPGKEWELVAAITRGDSTNYADSVKGRFTISRDNAKNTVYLQMNSLKPEDTAVYYCNAVYAGWRGGNYWGQGTQVTVSS”, the entry is “low polyreactivity”; as for “HVQLVESGGGLVQAGGSLRLSCAASGSIFIGNAMGWYRQAPGKERELVAAISKSDGRTYYADSVKGRFTISRDNAKNTVYLQMNSLKPEDTAVYFCAADAYWEPKVGFSLFDYWGQGTQVTVSS”, “low polyreactivity”.
Consider “HVQLVESGGGLVQAGGSLRLSCAASGSIFRGNAMGWYRQAPGKERELVAAISKSGGSTYYADSVKGRFTISRDNAKNTVFVQMNSLKPEDTAVYYCAARTTYLYGMYYWGQGTQVTVSS”, for which the “polyreactivity (PSR sort gate)” value is “low polyreactivity”.
“HVQLVESGGGLVQAGGSLRLSCAASGSIFWGNAMGWYRQAAGKERELVAAISWGGGRTYYADSVKGRFTISRDTAKNTVYLQMNSLKPEDTAVYYCNTRYPYVVSTGYDYWGQGTQVTVSS”: the “polyreactivity (PSR sort gate)” value is recorded as “high polyreactivity”.
“HVQLVESGGGLVQAGGSLRLSCAASGSTFSYNAMGWYRQAPGKEWELVAAISWRGTSTYYADSVKGRFTISRDNAKKTVYLQMNSLKPEDTAVYYCAAPYGVSYKGATYDSWGQGTQVTVSS”: the “polyreactivity (PSR sort gate)” value is recorded as “high polyreactivity”.
Under “HVQLVESGGGLVQAGGSLRLSCAASGSTFTRNAMGWSRQAPGKEWELVAVISSRGGRTYYADSVKGRFTISRDNAKNTVDLQMNSLKPEATAVYYCAARYVIPLGNTYDYWGPGTQVTVSS” stands “high polyreactivity”; under “HVQLVESGGGLVQAGGSLRLSCAASGSTFTTNVRGWYRQAPGKERELVAAISWNGASTNYADSVKGRFTISRDNAKNTVYLHMNSLNPEDTAVYYCAADVTGLVWDSYYYYFLYEYEYWGQGTQVTVSS”, “high polyreactivity”.
For the sequence “HVQLVESGGGLVQAGGSLRLSCADSGRILYYYAMRWYIQEPGKERELVAAINSSGGSPYYADSVKGRFTISRDIAKNTVYLQMNSLKPEDTAVYYGAAEYQVQGYDYWGQGSQVTVSS”, the “polyreactivity (PSR sort gate)” value is recorded as “high polyreactivity”.
Under “HVQLVESGGGLVQAGGSLRLSCPASGRIFYRNPMGWYRQAPGKERELVAGISKRGGSTYYADSVKGRFTISRDNAKNTVYLQMNSLKPEDTAVYYCATVPYSPPSAGPEYDYWGQGTQVTVSS” stands “high polyreactivity”; under “HVQLVESGGGLVQAGGSLRLTCAAYGINFTDYAMGWYRQDPGKEMELVAAISSGGGSTYYADSVKGRFTISLDYAKNTVYLQMNSLKPEDTAVYYCAAEGYLISGAGDYMYDYYWGQGTQVTVSS”, “high polyreactivity”.
In the case of “HVQLVESGGGLVQAGGSRRLSCAASGRIFYGYAMGWYRQAPGKERELVAGISYRGARTYYADSVKGRFTISRDNAKNTVYLQMNSLKPEDTAVYYCNAVPYYPFAFGALDYWGQGTQVTVSS”, the “polyreactivity (PSR sort gate)” value is recorded as “high polyreactivity”.
As for “HVQLVESGGGLVQAGVSLRLSCAASGSIFSPYAMGGFRPAPGKERELLAAISSSGGSTYYADSVKRRFTISRDNAKNTVYLQMNSLKPEDTAVYYCAADSATGIFDRLNYWGQGTQVTVSS”, the entry is “high polyreactivity”.
In the case of “HVQLVESGGGLVQEGGRLRLSCAASGFIFQVNAMGWYRQAPGKERELVAAITGSDGSTSYADSVKGRFTISRDNAKNNVYLQMNSLKPEDTAVYYCAKEESVSTHYYHLIRFDQWGQGTQVTVSS”, the “polyreactivity (PSR sort gate)” value is “low polyreactivity”.
As for “HVQLVESGGGLVQPGGSLRLSCAASGLTFPSYAMGWYRQAPGKERELVAAISSGDSTNYADSVKGRFTISRDNAKNTVYLQMNSLKPEDTAVYYCAVGLPHGGRSLYGSWYRFDYWGQGTQVTVSS”, the entry is “low polyreactivity”; as for “HVQLVESGRGLVQAGGSLRLSCAASGSTFPFYDRGWYRQAPGKERQLVDAITASVGNTYYADSVKGRFTISRDNAKNTVYLQMNSLKPEDTAVYYCNADELYTYIPDFDYWGQGSQVTVSS”, “low polyreactivity”; as for “HVQLVESGVGFVQAGGSLRLSCASSGSIFQAYAMGWYRQAPGNERELVAAISDSGGSTYYADSVKGRFTISRDNAKNTVYLQMNSLKPEDTEVYYCAADVYTRFWRVYRVDYWGQGTQVTVSS”, “low polyreactivity”.
As for “HVQLVESGVGLVQAGGSLRLRCAASGRTLSVYAMGWYRQAPGKERELVAAITIRGGRTYYADSVKGRFTISRDNAKNTVYLQMNSLKPEDTAVYYCAAPPYVKMDYWGQGTQVTVSS”, the “polyreactivity (PSR sort gate)” value is “high polyreactivity”.
Under “HVQLVETGGGLVQAGGSLRLSCAASGRIFYPYPMGWYRQAPRKERELLARISWGGGATYYADSVKGRFTISRDNAQNTVFLQMNSLKPEDTAVYYCAASYVGYWYRRGYGYWGQGTQVTVSS” stands “high polyreactivity”; under “HYHLVESGGGLVQAGGSLRLSCAASAFTFVQYAMGWYRQAPGKERELVATISKSGGITYYADSVKGRFTISRDNAKNTVYLQMNSLKPEDTAVYYCAAAWYYSSRGFHATWGHDYWGQGTQVTVSS”, “low polyreactivity”.
Under “KVQLVEAGGGLVQAGGSLRLSCAASGFILIYYAMGWYRQAPGKERELFAAITWSGGSTYYADSVKGRFTISRDNEKNTVYLKMNTLKQEETAVDYCAAYVGGGDSNADHDYWGQGTQVTVSA” stands “low polyreactivity”.

For the origin of these results see the nanobody polyreactivity screen of Harvey et al. (2022).
